Values of other authors in article PMC10173724.

Target: FABP3 (Homo sapiens) (UniProt P05413)

## alpha-synuclein C-terminal peptide Y133F/Y136F 130-140 (from UniProt P37840)
  Kd: 2.1 nM
